# Results as given in the supplement of paper PMC9170038.
# Tested on: MS2 coat protein
# Test: apparent KD of MS2 coat protein; designed switch direction (-1 OFF switch, 1 ON switch): 1; higher = weaker reporter binding
# Procedure, shortened: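 Each step of the titration lasted 0.8–1.5 h at the lowest concentration and 10–20 min at the highest. The protein, SNAP-549-labelled MS2 coat protein, went from 0.7 or 1.5 nM doubling to 3 µM over RNA switches transcribed on Illumina chips by stalled E. coli RNA polymerase. Normalised cluster fluorescence was curve-fitted, and the per-design median over clusters is given as apparent KD.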
# [1] = Eterna round: R95, input ligand: FMN 200 uM
# [2] = Eterna round: R95, input ligand: microRNA oligo, concentration not stated
# [3] = Eterna round: R95, input ligand: none
# [4] = input ligand: microRNA oligo, concentration not stated
Sequence,apparent KD of MS2 coat protein [1] [nM],apparent KD of MS2 coat protein [2] [nM],apparent KD of MS2 coat protein [3] [nM],apparent KD of MS2 coat protein (input ligand: FMN 200 uM) [nM],apparent KD of MS2 coat protein [4] [nM],apparent KD of MS2 coat protein (input ligand: none) [nM]
UUAAGCAACGGGCAGGAUAUGUAUUAAUAUACAUGAGGAUCACCCAUGUGCAGGUGUAACACCUGACAGAAGGGCCAAUCGCUGC [Soteed - 10] (puzzle: Same State 2),82.1,509,515,,,
UCUUAUAAUAAUAUAAUUCAUUUGAUAAAACAUGAGGAUCACCCAUGUCCUACUUUUUUUAAUCAUUUUAACUUUAA [The 7 c's] (puzzle: Sensor for hsa-mir-208a),45.3,62.6,63.5,,,
"ACUUGCGGCACAGGAUAUGGGUGCCUGUACAUGAGGAUCACCCAUGUUAAGGGACGGAUUACGAACCAGAAGGGUGAGGCGGGC [Aqube] (Eterna round: R96, puzzle: Same State NG 2)",,,,1350,296,300
"UGAAUAUCUACAGGAUAUGAGUUGUAUAGUGGAUCAGAAGGGUGGGUGUUUUGCACGGUGUGUUACAUGAGGAUCACCCAUGUU [SameState NG1 #25] (Eterna round: R96, puzzle: Same State NG 1)",,,,302,139,324
"UGUUGUAUUACAGGAUAUCUAUGUUUUUUAUUUAGAGAAGGGUAUUCACAUGAGGAUCACCCAUGUAUAUACGAGGAAGUUGUG [JMF's solution 57] (Eterna round: R96, puzzle: Same State NG 1)",,,,,40.4,
"AAGUAGCGAGAGCUACACAAAAAGUUUGUACAUGAGGAUCACCCAUGUUGUACAAGCUUUUUGCUCGUCUUAAAAAA [Mat - Sensor - JL mod - D14] (Eterna round: R96, puzzle: Sensor for hsa-mir-208a)",,,,77.4,11.6,84.1
UUAAAACAUGAGGAUCACCCAUGUAAUAAUAUGGGAGGAUAUCAGAUUUAAUUUAAUUUAUGAGAAGGCCUAAAUU [Mat - Same State 1 - Mod of Eli - D61] (puzzle: Same State 1),58.7,163,512,,,
"AUGAAGAAUUAAGGAUAUUGAUUACAUAUGUUUAACAUGAGGAUCACCCAUGUGGGUUGCGGUAUCGAGAAGGUAAAUUAAAAG [Mat - same State NG 2 - JL mod - D88] (Eterna round: R96, puzzle: Same State NG 2)",,,,,156,
"UAUUUAAUCGUAGGAUAUAGAGUGAAAUUUGUACUAGAAGGACGUAACAUGAGGAUCACCCAUGUGGUAAGUGGGACAUAGUAU [JR_SSNG1_Sub037] (Eterna round: R96, puzzle: Same State NG 1)",,,,44.1,27,39.7
"AGGCUGAGUCGAGGAUAUGAUCUUCAUAUAAUAACAUGAGGAUCACCCAUGUAUAAUUACAUGGAUCAGAAGGCGACUCAGCCA [SSNG2/13-B1] (Eterna round: R96, puzzle: Same State NG 2)",,,,35.4,414,584
UUGCAGUCAGGUGAGGAUAUCAUGAAUUAAACAUGAGGAUCACCCAUGUGCUGCCUUGCAGCAUAUGAGAAGGCACCUGGCUGCU [JL-ss2-3.01 Brourd Mod] (puzzle: Same State 2),65.2,185,640,,,
GUAGAUAUAGAGGAGGAUAUUCGAUGAGGAACAUGAGGAUCACCCAUGUAAGAGAGAGAUGAUGAGAAGAAGGCUUAGAGGGAUG [Altered State 2-4 - Jieux - Same State 2] (puzzle: Same State 2),25.1,35.8,36.4,,,
"GGUCGGACUACAUGAGGAUCACCCAUGUGUGCGGAAACGCCAUAGGAUAUCUGUCCGAAAAGGUCAGAGAAGGGUGAACCGACC [Fiskers NG3ss - 67] (Eterna round: R96, puzzle: Same State NG 3)",,,,882,30.1,73.9
GGUUUAGUCAAGUGCCGUUGCACUUGAAAACAUGAGGAUCACCCAUGUUUGGGACAAGCUUUGCUCCUCGUCUUUCC [Tiatmaraen] (puzzle: Sensor for hsa-mir-208a),477,66.3,591,,,
CAAGCUUGGGUCGUCCCGCUCGUCUACAAACAUGAGGAUCACCCAUGUAAAAUCUAAAAUUCAAAUCUAUCUCUAAA [Getienre] (puzzle: Sensor for hsa-mir-208a),515,20.9,563,,,
"GUGGUGGGUUGAGGAUAUUGGUUGUUGUUGUUUUACAUGAGGAUCACCCAUGUGGGUUGUGGUUUUGAGAAGGUUGGUUGCUGG [salish99_SSNG2_r04_048] (Eterna round: R96, puzzle: Same State NG 2)",,,,262,194,185
"UUUGCAUGACGAGGAUAUCAUUUAUUUCAUGUUUGAGAAGGCGUUUUUUUUAUUACCUUACAUGAGGAUCACCCAUGUGUCUGU [JR_SSNG1_Sub044] (Eterna round: R96, puzzle: Same State NG 1)",,,,32.2,39.6,48.5
"UGGCUCAGACGAGGAUAUAUGUGGUCACAUGAGGAUCACCCAUGUCUCGAGCUUCGGCUCGAGGCAUAGAAGGCGUCUGAGCCA [SSNG2/5-A2] (Eterna round: R96, puzzle: Same State NG 2)",,,,1300,50.8,632
"AAAAUCUACGAAAGUAGAACAAGCUUAAGACAUGAGGAUCACCCAUGUCAUGUCUUAAAACAUGAGGAAACUCAUGA [hsa-mir-208a sensor: 17] (Eterna round: R96, puzzle: Sensor for hsa-mir-208a)",,,,273,182,252
AAUGCACAUGAGGAUCACCCAUGUAAGACAAAGACAGGAUAUGGGCCGCAUGGCUCUGGCCCAGAAGGGUCAGUCG [Biorinin] (puzzle: Same State 1),,19.8,,,,
"GAGGGACAGACCAACAUGAGGAUCACCCAUGUCCUCGCAGGUCAGGAUAUUAUUAGGAUCACCAGUGAGAAGGGACGGUGAACC (Eterna round: R96, puzzle: Same State NG 3)",,,,755,398,564
"CGGCGCUGUCGAGAGGAUAUGCGGUGAUGGACAUGAGGAUCACCCAUGUUAGCGAUAGCAUCACGGUAGAAGGCUCUUACGCCUG [Soteed Omei mod 23] (Eterna round: R96, puzzle: Same State 2)",,,,217,257,717
GUAAAACAUGAGGAUCACCCAUGUCAACAAAGUCGAGGAUAUGGGCAAAUAAAAUAAGAACCAGAAGGCGAAUAAG [salish99_SS1_r3_009] (puzzle: Same State 1),44,703,1290,,,
AACGUGGGAGCACAGGAUAUGCAUUGCUCCACAUGAGGAUCACCCAUGUAGGCAAAUAGGGAGCAGCAGAAGGGUGGUCCGACAC [Orraonrexe] (puzzle: Same State 2),17.3,8.24,21.8,,,
